Results on 13 molecules are retold here after paper PMC6459857 (Nature Communications, 2019).

Common to all, as to conditions: both partners purified
Assay [1] deals with Cdk2/cyclin A binary complex (human, UniProt P24941 1-298; P20248 173-432). As to the kind of experiment: single-molecule fluorescence anisotropy (smFA); BODIPY-labelled single-Cys p27, not phosphorylated, free or in complex with Cdk2/cyclin A, diluted to pM; 20 mM HEPES pH 7.5, 300 mM NaCl, 40 µM TROLOX; average anisotropy of free and complexed p27 compared.
For assay [2], the target named is T1, Cdk2/cyclin A binary complex (human, UniProt P24941 1-298; P20248 173-432). As to the kind of experiment: single-molecule fluorescence anisotropy (smFA); BODIPY-labelled single-cysteine p27 in complex with Cdk2/cyclin A, freely diffusing molecules at pM concentration; 20 mM HEPES pH 7.5, 300 mM NaCl, 40 µM TROLOX. (In general: Polarisation of emitted light reports the rotation of a fluorescent probe.)

For assay [3], the target named is T1, Cdk2/cyclin A binary complex. As to the kind of experiment: ITC; 10 µM p27 or p27 Y to E variants injected into 1 µM Cdk2/cyclin A binary complex; 20 mM HEPES pH 7.5, 300 mM NaCl, 2 mM TCEP; experiments from 5 to 25 °C in intervals of 5 °C (temperature of the tabulated values not stated); single-site binding model. On the technique in general: In ITC the heat of successive injections is recorded.

The target is the same in assay [4]. As to the kind of experiment: FRET or BRET; single-molecule FRET (smMFD) within dual-labelled p27 in complex with Cdk2/cyclin A, freely diffusing molecules at pM concentration; 20 mM HEPES pH 7.5, 300 mM NaCl, 40 µM TROLOX. (In BRET a luciferase serves as donor, and the signal depends on an acceptor being close.)

Positions count from the first letter of the chain named. Names may count otherwise.

B1: p27-C29 (full-length p27-Y89F with the single native Cys 29, labelled with BODIPY-FL) (natural protein)
chain: MSNVRVSNGSPSLERMDARQAEHPKPSACRNLFGPVDHEELTRDLEKHARDMEEASQRKWNFDFQNHKPLEGKYEWQEVEKGSLPEFYFRPPRPPKGASKVPAQESQDVSGSRPAAPLIGAPANSEDTHLVDPKTDPSDSQTGLAEQSAGIRKRPATDDSSTQNKRANRTEENVSDGSPNAGSVEQTPKKPGLRRRQT
modifications: BODIPY-FL on Cys 29
notes: p27Kip1 (p27), human, residues 1-198 (full length), Y89F; Cys 29 kept, the other three native Cys replaced; also called p27-29C; source: E. coli, purified (Ni-NTA, His-tag removed with thrombin, reverse-phase HPLC over C4); labelled with BODIPY-FL
As for B1, the binding result in assay [1] is recorded as “binds”.

B2: BODIPY-labeled p27-C29 (natural protein)
chain: B1 chain
modifications: BODIPY-FL on the native cysteine at 29
notes: p27Kip1 (p27), human, p27-Y89F background with the single native Cys 29 kept; also called p27–29C; source: E. coli, purified; labelled with BODIPY-FL
Take B2: the binding result in assay [2] is listed as “binds”.

B3: Y74E/Y88E-p27 (natural protein)
chain: B1 chain with A49C, Y74E, Y88E, S99C, S148C
notes: p27Kip1 (p27), human, residues 1–198 (full length); also called Y88E/Y74E; dual Y phosphomimetic p27; source: E. coli, purified (Ni2+-NTA, His-tag removed with thrombin, reverse-phase HPLC over C4 resin)
Broadly, the Kd is the equilibrium constant for the complex coming apart. High values mean a looser complex, low ones a tighter complex. For the molecule B3, in assay [3], the Kd amounted to 14 nM and the dH was -34.4 kcal/mol.

B4: pY88-p27-C54-93 (Alexa Fluor 488 / Alexa Fluor 647 labelled) (natural protein)
chain: B1 chain with C29A, E54C, R93C
modifications: phosphotyrosine at 88; Alexa Fluor 488 maleimide and Alexa Fluor 647 maleimide on the cysteines at 54 and 93
notes: p27Kip1 (p27), human, in the Cys-less p27-Y89F background; source: E. coli, purified; dye-labelled; phosphorylated with ABL-KD
With B4, in assay [4], the binding result is reported as “binds”.

B5: BODIPY-labeled pY88-p27-C93 (natural protein)
chain: B1 chain with C29A, R93C
modifications: phosphotyrosine at 88; BODIPY-FL on the cysteine at 93
notes: p27Kip1 (p27), human, in the Cys-less p27-Y89F background; source: E. coli, purified; labelled with BODIPY-FL; phosphorylated with ABL-KD
As to B5, the binding result in assay [2] is recorded as “binds”.

B6: p27-C54-93 (Alexa Fluor 488 / Alexa Fluor 647 labelled) (natural protein)
chain: B1 chain with C29A, E54C, R93C
modifications: Alexa Fluor 488 maleimide and Alexa Fluor 647 maleimide on the cysteines at 54 and 93
notes: p27Kip1 (p27), human, in the Cys-less p27-Y89F background; also called p27-C54-C93; source: E. coli, purified; dye-labelled, dual-labelled species separated by ion-exchange chromatography
With B6, the binding result in assay [4] was “binds”.

B7: BODIPY-labeled p27-C93 (natural protein)
chain: B1 chain with C29A, R93C
modifications: BODIPY-FL on the cysteine at 93
notes: p27Kip1 (p27), human, in the Cys-less p27-Y89F background; source: E. coli, purified; labelled with BODIPY-FL
In the case of B7, the binding result in assay [2] is “binds”.

B8: p27-C75-110 (Alexa Fluor 488 / Alexa Fluor 647 labelled) (natural protein)
chain: B1 chain with C29A, E75C, S110C
modifications: Alexa Fluor 488 maleimide and Alexa Fluor 647 maleimide on the cysteines at 75 and 110
notes: p27Kip1 (p27), human, in the Cys-less p27-Y89F background; source: E. coli, purified; dye-labelled, dual-labelled species separated by ion-exchange chromatography
For the molecule B8, the binding result in assay [4] is given as “binds”.

B9: p27-C75 (Cys-less full-length p27-Y89F with E75C, labelled with BODIPY-FL) (natural protein)
chain: B1 chain with C29A, E75C
modifications: BODIPY-FL on Cys 75
notes: p27Kip1 (p27), human, residues 1-198 (full length), Y89F, Cys-less background, Glu 75 to Cys; also called p27-75C; source: E. coli, purified (Ni-NTA, His-tag removed with thrombin, reverse-phase HPLC over C4); labelled with BODIPY-FL
Regarding B9, the binding result in assay [1] is reported as “binds”.

B10: p27-C40 (Cys-less full-length p27-Y89F with E40C, labelled with BODIPY-FL) (natural protein)
chain: B1 chain with C29A, E40C
modifications: BODIPY-FL on Cys 40
notes: p27Kip1 (p27), human, residues 1-198 (full length), Y89F, Cys-less background, Glu 40 to Cys; also called p27-40C; source: E. coli, purified (Ni-NTA, His-tag removed with thrombin, reverse-phase HPLC over C4); labelled with BODIPY-FL
As to B10, in assay [1], the binding result was “binds”.

B11: p27-C29-54 (Alexa Fluor 488 / Alexa Fluor 647 labelled) (natural protein)
chain: B1 chain with E54C
modifications: Alexa Fluor 488 maleimide and Alexa Fluor 647 maleimide on the cysteines at 29 and 54
notes: p27Kip1 (p27), human, p27-Y89F background with the native Cys 29 kept; source: E. coli, purified; dye-labelled, dual-labelled species separated by ion-exchange chromatography
Turning to B11, the binding result in assay [4] is on record as “binds”.

B12: p27-C93 (Cys-less full-length p27-Y89F with R93C, labelled with BODIPY-FL) (natural protein)
chain: B1 chain with C29A, R93C
modifications: BODIPY-FL on Cys 93
notes: p27Kip1 (p27), human, residues 1-198 (full length), Y89F, Cys-less background, Arg 93 to Cys; also called p27-93C; source: E. coli, purified (Ni-NTA, His-tag removed with thrombin, reverse-phase HPLC over C4); labelled with BODIPY-FL
For B12, the binding result in assay [1] is on record as “binds”.

B13: p27-C54 (Cys-less full-length p27-Y89F with E54C, labelled with BODIPY-FL) (natural protein)
chain: B1 chain with C29A, E54C
modifications: BODIPY-FL on Cys 54
notes: p27Kip1 (p27), human, residues 1-198 (full length), Y89F, Cys-less background, Glu 54 to Cys; also called p27-54C; source: E. coli, purified (Ni-NTA, His-tag removed with thrombin, reverse-phase HPLC over C4); labelled with BODIPY-FL
With B13, in assay [1], the binding result was “binds”.
